In article PMC4771075:

Biological target: Dyn A(1-11)NH2 (Rattus norvegicus)
Assay: radioligand

Ki: 2.6 nM
B1: KOR, P34975 (protein)
chain: MESPIQIFRGEPGPTCAPSACLLPNSSSWFPNWAESDSNGSVGSEDQQLEPAHISPAIPVIITAVYSVVFVVGLVGNSLVMFVIIRYTKMKTATNIYIFNLALADALVTTTMPFQSAVYLMNSWPFGDVLCKIVISIDYYNMFTSIFTLTMMSVDRYIAVCHPVKALDFRTPLKAKIINICIWLLASSVGISAIVLGGTKVREDVDVIECSLQFPDDEYSWWDLFMKICVFVFAFVIPVLIIIVCYTLMILRLKSVRLLSGSREKDRNLRRITKLVLVVVAVFIICWTPIHIFILVEALGSTSHSTAVLSSYYFCIALGYTNSSLNPVLYAFLDENFKRCFRDFCFPIKMRMERQSTNRVRNTVQDPASMRDVGGMNKPV
